Results reported in patent US20110150901A1.

Target: complex of FGFR1c and β-Klotho (recombinant proteins) (UniProt P11362)
Assay: AlphaScreen competition
Settings: ligand

Sequence of complex of FGFR1c and β-Klotho (recombinant proteins) (P11362 other isoform, or with tags, fused parts or gaps, chain 1 of 2): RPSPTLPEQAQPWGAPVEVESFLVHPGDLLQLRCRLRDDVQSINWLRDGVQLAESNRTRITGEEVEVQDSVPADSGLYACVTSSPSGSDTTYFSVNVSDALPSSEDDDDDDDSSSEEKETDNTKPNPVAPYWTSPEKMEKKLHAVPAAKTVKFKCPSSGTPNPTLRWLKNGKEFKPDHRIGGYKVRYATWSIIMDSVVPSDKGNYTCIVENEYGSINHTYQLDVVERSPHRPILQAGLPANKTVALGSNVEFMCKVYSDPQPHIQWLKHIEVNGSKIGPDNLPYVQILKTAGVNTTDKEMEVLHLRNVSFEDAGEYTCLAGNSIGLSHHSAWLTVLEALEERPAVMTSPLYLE
Sequence of complex of FGFR1c and β-Klotho (recombinant proteins) (Q86Z14 53-996, chain 2 of 2, further chain): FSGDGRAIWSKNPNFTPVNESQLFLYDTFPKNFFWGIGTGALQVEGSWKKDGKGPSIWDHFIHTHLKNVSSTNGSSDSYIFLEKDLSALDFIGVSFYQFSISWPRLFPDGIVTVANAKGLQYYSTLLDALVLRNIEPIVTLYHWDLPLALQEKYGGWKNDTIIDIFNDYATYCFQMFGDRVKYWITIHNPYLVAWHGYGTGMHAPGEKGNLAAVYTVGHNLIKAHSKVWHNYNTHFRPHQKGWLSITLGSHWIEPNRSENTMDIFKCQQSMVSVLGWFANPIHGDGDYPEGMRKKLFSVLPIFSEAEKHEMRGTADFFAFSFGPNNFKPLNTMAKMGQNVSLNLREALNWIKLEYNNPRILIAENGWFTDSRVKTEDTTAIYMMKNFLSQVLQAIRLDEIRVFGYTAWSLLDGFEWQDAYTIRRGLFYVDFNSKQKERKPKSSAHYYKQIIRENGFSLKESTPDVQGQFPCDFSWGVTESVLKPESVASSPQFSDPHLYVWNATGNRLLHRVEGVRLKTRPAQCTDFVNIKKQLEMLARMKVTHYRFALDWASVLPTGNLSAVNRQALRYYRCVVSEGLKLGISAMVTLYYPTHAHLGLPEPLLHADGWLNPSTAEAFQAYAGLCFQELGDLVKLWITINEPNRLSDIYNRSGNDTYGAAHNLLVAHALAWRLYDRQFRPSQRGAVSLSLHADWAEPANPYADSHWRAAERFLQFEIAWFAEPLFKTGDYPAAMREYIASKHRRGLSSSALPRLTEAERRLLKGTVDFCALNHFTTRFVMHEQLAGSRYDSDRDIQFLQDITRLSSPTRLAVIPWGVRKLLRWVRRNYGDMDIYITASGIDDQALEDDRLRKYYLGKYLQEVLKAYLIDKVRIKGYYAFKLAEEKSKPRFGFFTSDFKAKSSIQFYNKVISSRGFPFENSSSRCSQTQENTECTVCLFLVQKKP

Substance: human FGF21 (from UniProt Q9NSA1 29-209)
- IC50: 2.6 nM
